Experimental data as given in patent US20160122405A1, “HOMEODOMAIN FUSION PROTEINS AND USES THEREOF” (priority 2013, published 2016).
Numbering of substitutions follows the chain as printed. Entries after “also recorded” stand apart in the source; their conditions may differ. Read-outs that look alike come from different tables or passages of the source.

Key:
[1] = test system: Hoxa9-Meis1 immortalized AML model cells; assay: Growth deficit of construct-transduced AML cells versus non-transduced cells in same well; type: cell-based, murine; conditions: for Activity: activity based upon growth deficit versus non-transduced cells in same well, constructs retrovirally transduced into AML cells
Sin3 = assay: method not stated
[2] = test system: Hoxa9-Meis1 murine AML cells; type: in vivo, mice; conditions: for Median Survival days: mouse, in vivo; for AML latency in vivo: versus vector control
[3] = test system: differentiation-specific genes (S100A8, myeloperoxidase, neutrophil elastase); assay: QPCR of differentiation-specific genes in transduced Hoxa9-Meis1 cells; type: cell-based; conditions: Hoxa9-Meis1 murine cells, versus vector control
[4] = test system: Hoxa9 target genes (SOX4, CD34, FLT3R, FOXP1, DNAJC10); assay: QPCR of direct Hoxa9 target genes in Hoxa9/Meis1 cells; conditions: 17 days after transduction, versus GFP control
[5] = test system: Mac-1 (CD11b), Gr-1 and FLT3R expression; assay: Flow cytometry of cell surface markers after transduction; type: cell-based, murine; conditions: 30 days
[6] = Hoxa9-Meis1 cells, retroviral expression
[7] = listed as 3X glycine linker repressor construct

## S2 mutant: S2 with DNA base contact residues of HFP domain mutated to alanine, SEQ ID NO: 32 (DPERQVKAWFAARRAKMKKINGGDPVSQVSAWFGAKRIAYKKNI)
[1]
  growth phenotype (growth deficit / growth inhibition): less growth inhibition

## wild-type SID (Sin3-interacting domain of Mad1 protein) (from UniProt Q05195 5-29) (peptide)
Sin3
  Kd: 0.07 µM

B1: S2: SID-3XNLS-GG linker-HoxA9-GG-PBX fusion protein, SEQ ID NO: 29 (protein)
chain: MATAVGMNIQLLLEAADYLERREREAEHGYASMLPYDPKKKRKVDPKKKRKVDPKKKRKVGGDPERQVKIWFQNRRMKMKKINGGDPVSQVSNWFGNKRIRYKKNIG
[2]
  Median Survival days: 67 days
[1]; [6]
  growth phenotype (growth deficit / growth inhibition): more growth deficit

B2: Fusion protein 4: SID-3XNLS-HFP, SID of SEQ ID NO: 13, SEQ ID NO: 39 (protein)
chain: MVGMNIQLLLEAADYLERRERGGDPKKKRKVDPKKKRKVDPKKKRKVGGDPERQVKIWFQNRRMKMKKINGGGDPVSQVSNWFGNKRIRYKKNIG
[1]
  Activity: ✓

B3: Fusion protein 3: SID-3XNLS-HFP, SID of SEQ ID NO: 12, SEQ ID NO: 38 (protein)
chain: MVGMNIQLLLEAADYLERREREAEHGGDPKKKRKVDPKKKRKVDPKKKRKVGGDPERQVKIWFQNRRMKMKKINGGGDPVSQVSNWFGNKRIRYKKNIG
[1]
  Activity: ✓

B4: S3: Full SID-3XNLS-HFP with GGG linker, SEQ ID NO: 30 / 35 (protein)
chain: MATAVGMNIQLLLEAADYLERREREAEHGYASMLPYDPKKKRKVDPKKKRKVDPKKKRKVGGDPERQVKIWFQNRRMKMKKINGGGDPVSQVSNWFGNKRIRYKKNIG
[3]
  mRNA levels of differentiation-specific genes: higher mRNA levels
[3]; [7]
  mRNA levels of differentiation-specific genes: mRNA upregulation of differentiation-specific genes
[3]; listed as repressor
  mRNA levels of differentiation-specific genes: elevates differentiation-specific genes
[4]
  transcripts of Hoxa9 target genes: suppresses multiple targets of Hoxa9; also recorded: suppresses transcripts of Hoxa9 target genes
[4]; [7]
  transcripts of Hoxa9 target genes: suppression of direct Hoxa9 transcriptional target genes
[2]
  Median Survival days: 94 days
  AML latency in vivo: longer latency in vivo that was statistically significant
[2]; listed as HFP repressor
  AML latency in vivo: significantly longer latency
[2]; listed as repressor
  AML latency in vivo: longer latency
[5]; [7]
  cell-surface expression of myeloid differentiation markers Mac-1 and Gr-1: increases in cell-surface expression of myeloid differentiation markers
  surface expression of Flt3 receptor: decreased surface expression
[5]; listed as repressor HFP
  cell-surface expression of myeloid differentiation markers Mac-1 and Gr-1: increases expression of Gr-1 and Mac-1 differentiation markers
  surface expression of Flt3 receptor: decreases expression of Flt3 receptor
[1]; [6]
  growth phenotype (growth deficit / growth inhibition): more growth deficit
[1]; Hoxa9-Meis1 cells, retroviral expression, listed as HFP
  growth phenotype (growth deficit / growth inhibition): significant growth defects
[1]
  Activity: ✓
[1]; by day 8, IRES GFP vector, GFP vector control 80%
  HFP-expressing cells as % of the population: 2%

B5: S3 mutant: S3 with DNA base contact residues mutated to alanine, SEQ ID NO: 33 (HFP domain) / 46 (protein)
chain: B4 chain with I70A, Q73A, N74A, M77A, N94A, N98A, R102A
[4]; listed as mutant construct
  transcripts of Hoxa9 target genes: little to no repression
[1]; [6]
  growth phenotype (growth deficit / growth inhibition): less growth inhibition

B6: S4: SID-3XNLS-GG linker-HoxA9-GGGG-PBX fusion protein, SEQ ID NO: 31 (protein)
chain: MATAVGMNIQLLLEAADYLERREREAEHGYASMLPYDPKKKRKVDPKKKRKVDPKKKRKVGGDPERQVKIWFQNRRMKMKKINGGGGDPVSQVSNWFGNKRIRYKKNIG
[2]
  Median Survival days: 69 days

B7: S1: SID-3XNLS-GG linker-HoxA9-G-PBX fusion protein, SEQ ID NO: 28 (protein)
chain: MATAVGMNIQLLLEAADYLERREREAEHGYASMLPYDPKKKRKVDPKKKRKVDPKKKRKVGGDPERQVKIWFQNRRMKMKKINGDPVSQVSNWFGNKRIRYKKNIG
[2]
  Median Survival days: 62 days

B8: Fusion protein 10: HFP-3XNLS-Full SID, SEQ ID NO: 45 (protein)
chain: DPERQVKIWFQNRRMKMKKINGGGDPVSQVSNWFGNKRIRYKKNIGGGDPKKKRKVDPKKKRKVDPKKKRKVATAVGMNIQLLLEAADYLERREREAEHGYASMLPY
[1]
  Activity: ✓
